Experimental data taken from publication PMC10821498, “Radiosynthesis Standardization and Preclinical Assessment of the [^68Ga]Ga-DOTA-Ubiquicidin29-41: A Translational Study Targeting Differential Diagnosis of Infectious Processes” (Pharmaceuticals, 2023).
Where a SMILES comes first, the peptide text is derived from it. The star is where a group is joined. DOTA = O=C(O)CN1CCN(CC(=O)O)CCN(CC(=O)*)CCN(CC(=O)O)CC1

Legend:
[1] = type: physicochemical
Protocol: The n-octanol/water partition coefficient (P) of [^68Ga]Ga-DOTA-UBI29-41 was determined using the shake-flask method described elsewhere. A 50 µL aliquot (~2 MBq) of the final product was added to a mixture of n-octanol/water (1:1). The tubes containing the mixture were shaken and centrifugated at 5000× g for 5 min in a Minispin® plus centrifuge (Eppendorf AG, Hamburg, Germany). Then, they were let to rest until complete separation of the phases occurred. After that, samples of 100 μL were taken from each phase. Radioactivity in the aliquots was quantified in an automated Wizard^2™ 3” 2480 gamma counter (PerkinElmer, Shelton, CT, USA). From there, the logarithm of P was determined from the ratio of the activity in organic phase to that in the aqueous phase.

rodent serum proteins = assay: in vitro; type: in vitro ADME
Protocol: (§1) SPB was determined via incubation of 50 μL of [^68Ga]Ga-DOTA-UBI29-41 with 450 μL of rodent serum at 37 °C and under gentle shaking at 450× g. At 30 and 60 min, proteins were separated via ultracentrifugation at 14,000× g using Amicon® 10 kDa filters (Merck Millipore, São Paulo, Brazil). The supernatant and pellet were conditioned in microtubes and their radioactivity was quantified in an automated gamma counter. The percentage of SPB was defined by the ratio between the radioactivity in the pellet and the total radioactivity, given by the sum of the radioactivities of the pellet and the supernatant.

in vitro = in vitro ADME, rodent; settings: rodent, serum
Protocol: as §1

[2] = system: methicillin-resistant Staphylococcus aureus (MRSA); type: in vivo; settings: healthy and MRSA-infected BALB/c mice, 30 and 60 min after i.v. administration, n = 5 per time point
Protocol: The MRSA bacterial strain was prepared in two steps: pre-inoculum and inoculum. In the pre-inoculum phase, 10 mL of Luria Bertani (LB) medium and 20 μL of ampicillin (500 mg/mL) were added to MRSA (50–100 IU). The mixture was maintained overnight at 37 °C and under shaking at 200× g. In the inoculum phase, 20 mL of LB medium, 500 μL of the pre-inoculum preparation content and 40 μL of ampicillin (500 mg/mL) were combined. This new product was maintained at 37 °C and under shaking at 200× g until it reached an absorbance of 0.8–1.0. This quantification was carried out with an LGI-VS-721N spectrophotometer (LGI Scientific, São Paulo, Brazil). At this point, the content was manually homogenized and 1 mL samples were separated for centrifugation at 14,000× g for 5 min. Supernatants were removed and pellets were resuspended in 100 μL of PBS containing 10^9 CFU.
Male BALB/c mice aged between 6 and 8 weeks were used in this work. […]
For the ex vivo biodistribution study, [^68Ga]Ga-DOTA-UBI29-41 was administered intravenously through the caudal vein of the mice (~5 MBq/100 μL) in control and infected animals. […] Organs were removed and weighed, and the radioactivity was quantified in a gamma counter. Percentages of injected activity per gram of organ (% IA/g) were determined, as well as the ratio of target (right tight muscle) to non-target (left tight muscle).

CSCC[C@H](NC(=O)[C@H](CCCNC(=N)N)NC(=O)[C@H](CCCNC(=N)N)NC(=O)[C@H](CCCCN)NC(=O)[C@H](C)NC(=O)[C@H](CCCNC(=N)N)NC(=O)CNC(=O)[C@@H](NC(=O)CN1CCN(CC(=O)O)CCN(CC(=O)O)CCN(CC(=O)O)CC1)[C@@H](C)O)C(=O)N[C@@H](CCC(N)=O)C(=O)N[C@@H](Cc1ccc(O)cc1)C(=O)N[C@@H](CC(N)=O)C(=O)N[C@@H](CCCNC(=N)N)C(=O)N[C@@H](CCCNC(=N)N)C(=O)O [[^68Ga]Ga-DOTA-UBI29-41, [^68Ga]Ga-DOTA-Ubiquicidin29-41, metal not drawn] ({DOTA}-TGRAKRRMQYNRR-OH)
Log P [1]: –3.63 ± 0.17 | Binding to rodent serum proteins (SPB) (rodent serum proteins): 60% | fraction unbound at 30 min (in vitro): 0.398 | fraction unbound at 60 min (in vitro): 0.559 | Blood clearance and excretion [2]: fast blood depuration with urinary excretion
